Experimental data from article PMC4512722.

Experiments:
[1] = target: tomato pectin methylesterase PME1 (tomato) (UniProt P14280); assay: SPR; tomato PME1 immobilised by amine coupling on a COOH5 chip (SensiQ Pioneer), VvPMEI1 injected at 2.3-300 nM, 25°C, 10 mM HEPES pH 7.5, 0.1 M NaCl, 0.005% Tween-20; 1:1 interaction model
[2] = target: tomato pectin methylesterase PME1 (tomato) (UniProt P14280); assay: SPR; tomato PME1 immobilised by amine coupling on a COOH5 chip (SensiQ Pioneer), VvPMEI1 injected at 2.3-300 nM, 25°C, 10 mM NaOAc pH 5.5, 0.1 M NaCl, 0.005% Tween-20; 1:1 interaction model
[3] = target: tomato pectin methylesterase PME1 (tomato) (UniProt P14280)

Sequence of UniProt P14280 (P14280 230-546): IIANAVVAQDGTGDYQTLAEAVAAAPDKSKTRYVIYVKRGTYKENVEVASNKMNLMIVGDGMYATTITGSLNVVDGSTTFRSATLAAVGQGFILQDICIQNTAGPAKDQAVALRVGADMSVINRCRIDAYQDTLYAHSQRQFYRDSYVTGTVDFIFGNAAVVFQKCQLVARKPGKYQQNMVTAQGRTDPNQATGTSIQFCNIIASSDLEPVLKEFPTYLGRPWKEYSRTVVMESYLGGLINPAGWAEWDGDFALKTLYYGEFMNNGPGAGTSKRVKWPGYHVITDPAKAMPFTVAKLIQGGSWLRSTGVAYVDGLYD

## VvPMEI1, pectin methylesterase inhibitor of Vitis vinifera (recombinant) (natural protein)
[1]
  Kd: 35 nM
  koff: 0.026 s⁻¹
[2]
  Kd: 4.77 nM
  koff: 0.00317 s⁻¹
[3]
  inhibitory activity (%) at pH 6.5, inhibition at pH 5.5 taken as 100%: 100%
  inhibitory activity (%) at pH 7.5, inhibition at pH 5.5 taken as 100%: 84%
